Results taken from the supplement of paper PMC10567573.
± gives the standard deviation.

Assay: protein stability index of a GFP-peptide fusion (GPS, HEK-293T) (PSI 1-6); higher = more stable
[1] = treatment: DMSO, c terminus: a fixed tail appended
[2] = treatment: MLN4924 1 uM, 8 h, c terminus: a fixed tail appended
[3] = treatment: DMSO, c terminus: native
[4] = treatment: MLN4924 1 uM, 8 h, c terminus: native
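Further: 24-mer peptide tiles fused after GFP, lentivirally expressed, FACS-sorted into six equal bins by GFP/DsRed ratio, decoded by Illumina sequencing, PSI is the read-weighted mean bin number.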

| Sequence | protein stability index [1] | protein stability index [2] | protein stability index [3] | protein stability index [4] |
| --- | --- | --- | --- | --- |
| MPAHLLQDDISSSYTTTTTITAPP [SCD] | 3.99 ± 0.21 | 3.88 ± 0.28 | – | – |
| SPPLHANTSLHVFVLDENDNAPAV [PCDHGC5] | 3.94 ± 0.23 | 3.81 ± 0.45 | – | – |
| NICELAARMLFSAVEWARNIPFFP [NR2F2] | 3.61 ± 0.17 | 3.23 ± 0.06 | – | – |
| QAFRAIDRGDYYLEGYRDNAYKDL [PCMTD1] | 2.85 ± 0.19 | 2.98 ± 0.53 | – | – |
| LWSQSYEDSSNQEEEGPSTFPDLE [MAGEA3] | 5.26 ± 0.21 | 5.06 ± 0.14 | – | – |
| EVTASQEARGLRLSDLEDLEEEEE [IRX6] | 5.73 ± 0.34 | 5.64 ± 0.14 | – | – |
| LNQGFLQAKPEKAAVAQKPRSHFT [MYBL2] | 3.88 ± 0.34 | 4.06 ± 0.12 | – | – |
| WVKGSVPPPLDQYVKFDAVSGDYY [CLPTM1] | 2.79 ± 0.24 | 2.72 ± 0.28 | – | – |
| TMQSMFAKNFHVKAVMKTSVLLSW [PTPRD] | 2.48 ± 0.73 | 2.94 ± 0.42 | – | – |
| SYLIEKVKRKKNVLRLCCKKLKIF [PRAME] | 3.23 ± 0.36 | 3.22 ± 0.28 | – | – |
| VDEYFRQPVVDTFDIRILMAKSVK [CARM1] | 2.47 ± 0.46 | 2.64 ± 0.63 | – | – |
| GVCIRRCTVLRDARIRSHSWLESC [GMPPB] | 2.31 ± 0.35 | 2.15 ± 0.12 | – | – |
| QARYHDTPYKPPAGRAAAPELSYR [MYORG] | 3.69 ± 0.15 | 3.85 ± 0.13 | – | – |
| VDRNTRPGPQDPEESASRQRFGEA [ELOA2] | 4.92 ± 0.25 | 5.14 ± 0.14 | – | – |
| YIRAPPRSKIYLRFLDYEMQNSNE [NETO1] | 2.28 ± 0.16 | 2.44 ± 0.22 | – | – |
| KDFANTIPGHGGIMDRFDCQYLMA [CDS2] | 2.69 ± 0.37 | 2.8 ± 0.26 | – | – |
| SLIPLILDLMKEWIAHSEKLPRKV [SPACA9] | 2.28 ± 0.46 | 2.02 ± 0.36 | – | – |
| SITVSKVDKDQPSILNSCEDPVPG [FBXO34] | 5.25 ± 0.22 | 5.25 ± 0.12 | – | – |
| IYGPGNLSTNNNTLRDHFKGISSH [SLC2A12] | 2.95 ± 0.26 | 3 ± 0.14 | – | – |
| EIKDKDQLVLRTKEAFDTIQEQKV [SASS6] | 4.54 ± 0.25 | 4.53 ± 0.46 | – | – |
| KLLDELPIAKVMKDYLKHKFDDI [ASB7] | – | – | 2.37 ± 0.28 | 2.66 ± 0.38 |
| APAAPMVSKGAESSRSSEESSSDS [BRD3] | 5.59 ± 0.19 | 5.63 ± 0.18 | – | – |
| AWMLCKLLDKAGVPPGVVNIVFGT [ALDH8A1] | 2.642 ± 0.019 | 2.77 ± 0.51 | – | – |

| Sequence | protein stability index [1] | protein stability index [2] | protein stability index [3] | protein stability index [4] |
| --- | --- | --- | --- | --- |
| GGKKDKARYIDTHNRVSKEDEDIY [PLK2] | 4.37 ± 0.27 | 4.73 ± 0.4 | – | – |
| AETDEHTGANTKKPEDTAEDLTAK [FAM9B] | 5.74 ± 0.23 | 5.62 ± 0.12 | – | – |
| CSVHYVSDSGDGVYAGRPLSVIQM [FBXO34] | 2.37 ± 0.78 | 2.75 ± 0.68 | – | – |
| KSKWDEEWDKNKSAFPFSDKLGEL [CLINT1] | 3.82 ± 0.31 | 3.85 ± 0.21 | – | – |
| PGGNLIVELARYLVDVRQEQLQGF [DNAAF3] | 2.9 ± 0.56 | 2.39 ± 0.14 | – | – |
| HMNRLQSQRAMLLQGTESLNRATQ [VTI1B] | 4.12 ± 0.12 | 3.895 ± 0.03 | – | – |
| RPWRAGVLAEGDNASRSLYPDAED [PSD2] | 5.16 ± 0.2 | 5.05 ± 0.16 | – | – |
| FSGWISALVVPKGNTAVSVLMLLV [SCAMP3] | 2.87 ± 0.39 | 2.73 ± 0.46 | – | – |
| VDREKGLSAEPGWQAKREEEEEEE [CHGA] | 5.36 ± 0.48 | 5.7 ± 0.18 | – | – |
| LDQALKEGGKLPPPPPPSYDPDYI [ZC2HC1A] | 4.95 ± 0.16 | 4.89 ± 0.16 | – | – |
| ERRELAVEQGERALERRRRALQEE [ZBED3] | 5.34 ± 0.17 | 5.39 ± 0.31 | – | – |
| DAFWWAVVSMTTVGYGDMYPVTIG [KCNA1] | 3.45 ± 0.23 | 3.33 ± 0.49 | – | – |
| AYLVTVRGNLSILAAVLVEPKLHT [OR3A1] | 3.21 ± 0.75 | 2.71 ± 0.68 | – | – |
| MARGRKMSKPRAVEAAAAAAAVAA [KMT5A] | – | 4.4 ± 0.55 | – | – |
| CRELGYVEAKSWTASSSYGKGEGP [LOXL2] | 3.44 ± 0.41 | 3.45 ± 0.37 | – | – |
| KHAVVNLINYQDDAELATRAIPEL [CTNNB1] | 3.66 ± 0.23 | 3.64 ± 0.38 | – | – |
| DCLEGKKSKHAPRGTHLWEFIRDI [ELF3] | 2.66 ± 0.2 | 2.66 ± 0.39 | – | – |
| TTYDRRSSQERKFMEERELLGQDE [RSPH3] | 5.34 ± 0.2 | 5.39 ± 0.23 | – | – |
| VGGFDGTTYLKTIEVFDPDANTWR [KLHL20] | 2.91 ± 0.12 | 2.92 ± 0.32 | – | – |
| ETSYQQREERLRRENEELSARYLS [FBF1] | 4.79 ± 0.2 | 4.89 ± 0.17 | – | – |
| TLRQKAEADKNDKAVKDLVVLLFE [HSP90AB1] | 3.07 ± 0.39 | 3.12 ± 0.27 | – | – |
| SYPMRRSYRYKLLNWAYQQVQQNK [STEAP1] | 2.34 ± 0.19 | 2.36 ± 0.25 | – | – |
| KILPWSPEKIGTRFLLYTNENPNN [PNLIPRP1] | 2.56 ± 0.28 | 2.89 ± 0.28 | – | – |

| Sequence | protein stability index [1] | protein stability index [2] | protein stability index [3] | protein stability index [4] |
| --- | --- | --- | --- | --- |
| LKLRQQVIATATVYFKRFYARYSL [CCNC] | 2.85 ± 0.51 | 2.49 ± 0.18 | – | – |
| LSPLRAASDPLLSSVSPAVSKASS [TFE3] | 4.47 ± 0.18 | 4.68 ± 0.067 | – | – |
| GGLFVGKEGPMIHSGSVVGAGLPQ [CLCN6] | 3.39 ± 0.16 | 3.46 ± 0.44 | – | – |
| KSAHQTHSSWTPPNAQYWSQFHSV [DNAJC4] | 2.74 ± 0.28 | 2.67 ± 0.18 | – | – |
| ENLKQQRSRREQFSRAPVSALPLA [STX5] | 3.74 ± 0.37 | 3.75 ± 0.17 | – | – |
| WYTKSFGHLCAAEVVKIRDSFSNQ [DLC1] | 2.56 ± 0.78 | 2.09 ± 0.49 | – | – |
| QNTHLTRHQRTHTGEKPYQCNICG [ZNF263] | 4.01 ± 0.27 | 4.19 ± 0.32 | – | – |
| RQKIWNNMPKDHPVSCCLGLLLES [DYNC2LI1] | 2.25 ± 0.23 | 2.34 ± 0.28 | – | – |
| VKQEIAEMRIPALNAYMKSLLSLP [NCF4] | 2.27 ± 0.34 | 2.36 ± 0.28 | – | – |
| LSEEEEDEEEEEEEEEEGRFYYSE [KCNA4] | 5.2 ± 0.16 | 5.19 ± 0.39 | – | – |
| IITQLEDSRRVTKENSHQVKEELS [TRIM63] | 4.28 ± 0.35 | 4.39 ± 0.26 | – | – |
| IARVHGTFGAAACSIGFAVRYLNA [POP5] | 2.22 ± 0.26 | 2.25 ± 0.56 | – | – |
| YGGGLGGGFGGGFAGGFVDFGACD [KRT13] | 2.39 ± 0.46 | 2.14 ± 0.67 | – | – |
| MDDSTEREQSRLTSCLKKREEMKL [TNFSF13B] | 5.04 ± 0.19 | 5.16 ± 0.11 | – | – |
| EMPKSSDFLIHPPERSDLTLYLIV [PCDHGC5] | 2.83 ± 0.47 | 2.72 ± 0.3 | – | – |
| IRYQSFNNQSDLEKEMQKMNPYKI [PRIM1] | 3.07 ± 0.13 | 3.26 ± 0.28 | – | – |
| KQPPVTQSKTASDKSPSTVRDQGP [FBF1] | 5.29 ± 0.17 | 5.27 ± 0.091 | – | – |
| PMQERRASFYACRLDKHLYVIGGR [KLHL14] | 2.15 ± 0.49 | 2.23 ± 0.28 | – | – |
| MEEVLLLGLKDKEGYTSFWNDCIS [GOLPH3L] | 2.29 ± 0.29 | 2.61 ± 0.27 | – | – |
| TMLSHYRPFYVNKGNGIGSNEAP [TRIM29] | – | – | 3.1 ± 0.24 | 3.14 ± 0.25 |
| LEDGQTPLHLSALRDDVLCARMLY [ASB7] | 2.67 ± 0.29 | 2.93 ± 0.33 | – | – |
| VSVESQQVQQVEVEATVKPELTAA [PRPH] | 5.23 ± 0.089 | 5.25 ± 0.12 | – | – |
| DLHKMNHVTPPNVSLGATGGPPAG [JUNB] | 4.38 ± 0.19 | 4.39 ± 0.078 | – | – |

| Sequence | protein stability index [1] | protein stability index [2] | protein stability index [3] | protein stability index [4] |
| --- | --- | --- | --- | --- |
| MADSASESDTDGAGGNSSSSAAMQ [CCDC6] | 5.51 ± 0.08 | 5.38 ± 0.32 | – | – |
| KAQGHGAKGDNVYEFHLEFLDLVK [HACD3] | 2.37 ± 0.2 | 2.46 ± 0.14 | – | – |
| ARLTGVNDKMAEYTNSAGVPSLNA [GOSR1] | 3.83 ± 0.22 | 4.01 ± 0.16 | – | – |
| GSANDYKDTLGKGSSLSAPSKKTS [KRT71] | 5.33 ± 0.22 | 5.3 ± 0.22 | – | – |
| RAPEVLLQSTYATPVDMWSVGCIF [CDK4] | 2.7 ± 0.28 | 2.35 ± 0.34 | – | – |
| LLDVKTRLEQEIATYRRLLEGEDA [KRT16] | 4.24 ± 0.15 | 4.2 ± 0.35 | – | – |
| SDDFCTFQMVLEGGVCCTVTLNFN [GFOD1] | 2.79 ± 0.48 | 3.02 ± 0.29 | – | – |
| GMDFHRFYFENALSKSNKPIHTII [CAMK2D] | 2.94 ± 1.8 | 2.06 ± 1.1 | – | – |
| PVCYQCLEEGKHSSHEVKALGAMW [TRIM9] | 2.64 ± 0.35 | 2.76 ± 0.32 | – | – |
| RRFQQTQYLALPERAELAASLGLT [DLX1] | 2.95 ± 0.21 | 3.12 ± 0.099 | – | – |
| KPHFESSTVKTETISFGSVSPGGV [EPB41L3] | 4.08 ± 0.23 | 4.09 ± 0.11 | – | – |
| GKEQSRRDDLEALGHMFMYFLRGS [CSNK1G3] | 2.38 ± 0.34 | 2.29 ± 0.45 | – | – |
| VTATDQKVEKMLISSIKEKYPSHS [IMPA1] | 3.94 ± 0.14 | 4.27 ± 0.23 | – | – |
| LEPKANLQAALQVLELHHSKLDTT [VPS39] | 4.2 ± 0.19 | 4.31 ± 0.19 | – | – |
| RPHEVLLCSDLVKAYQRCVSAAHK [CHCHD6] | 2.64 ± 0.11 | 2.75 ± 0.61 | – | – |
| RGTPPRRHSFRKHLYLLRGLPGSG [N4BP2L1] | 2.64 ± 0.3 | 2.94 ± 0.21 | – | – |
| LGACVRTAVAQGGWRSLWLGWGPT [SLC25A39] | 2.07 ± 0.63 | 2.04 ± 0.16 | – | – |
| LEQEQEFQVNKLMKKIKKLENDTI [CCDC6] | 4.31 ± 0.6 | 4.19 ± 0.58 | – | – |
| NTLAPTCFKAKLHRKRGSQPPDMA [RSPH3] | 3.83 ± 0.12 | 3.87 ± 0.25 | – | – |
| MEEQREALRKIIKTLAVKNEEIQS [FSD1] | 3.15 ± 0.1 | 3.16 ± 0.27 | – | – |
